Laboratory results as given in patent publication US20100015155A1.

Molecular target: human soluble Abeta (1-40) (human) (UniProt P05067)
Assay: KinExA equilibrium, antigen on sepharose beads, soluble Abeta (1-40) titrated, 37 C

Chain of human soluble Abeta (1-40) (human) (P05067 672-711 limits assumed): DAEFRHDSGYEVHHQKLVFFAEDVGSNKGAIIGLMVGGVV

“murine 266 Fab (Fab fragment of the murine monoclonal antibody designated 266)” gave a Kd of 240 pM.
